B1: IGEL9.1 (ssRNA)
RNA: GGGAGGACGAUGCGGGCGGGGAACAGACGGCUCAGAGCGGCACGAUUGUCAGCCAGCAAUUAUAUCGUGUUGAUGCAGACGACUCGCCCGA
modifications: 2'-NH2 on all C and U
B2: IGEL3.1 (ssRNA)
RNA: GGGAGGACGAUGCGGUCCAUCGAUUAGGCGGUCGUGCUGGUGUAGUGUGUAGUGGCAGACGACUCGCCCGA
modifications: 2'-NH2 on all C and U
B3: IGEL25.1 (ssRNA)
RNA: GGGAGGACGAUGCGGGUGUGAAUGGUGUCGUGAGGACUUAUCAGGCUCCGUGGUGCAGACGACUCGCCCGA
modifications: 2'-NH2 on all C and U
B4: IGEL29.1 (ssRNA)
RNA: GGGAGGACGAUGCGGGUGUCAAUGGUGUUGCGAGGCAAAAAUAACCAGCGCAUAUUCUCGGCCAUGUUGGCGUGCAUACAGACGACUCGCCCGA
modifications: 2'-NH2 on all C and U
B5: IGEL2.1 (ssRNA)
RNA: GGGAGGACGAUGCGGGUGUGGGGCGAAUGAGAAACGUUACCAGGAAAUGCGACUGCAGACGACUCGCCCGA
modifications: 2'-NH2 on all C and U
B6: IGEL13.1 (ssRNA)
RNA: GGGAGGACGAUGCGGGACGGGGGCGGAAUCAUGCAUGUGAGCGAACAGAGAGAGAGCCGUGUAUCCAUUCGUGGUCAGACGACUCGCCCGA
modifications: 2'-NH2 on all C and U
B7: IGEL31.1 (ssRNA)
RNA: GGGAGGACGAUGCGGGUGUGAAUGGUGUUGUGAGGUUCUCGACUGUUUGUGUCUAGCCGUACUUUAGCCUCGGCCAGACGACUCGCCCGA
modifications: 2'-NH2 on all C and U
B8: IGEL48.1 (ssRNA)
RNA: GGGAGGACGAUGCGGGAGUGGGGCGAUGAGAGAGAUCAGAGAACUAGAAGUGAUACAAAAUCUGAGGUUGUUGCGCAGACGACUCGCCCGA
modifications: 2'-NH2 on all C and U
B9: IGEL7.1 (ssRNA)
RNA: GGGAGGACGAUGCGGAGACGCGUGAACACUAGUAUCACAGUUAAGGAUGCGCGCAGACGACUCGCCCGA
modifications: 2'-NH2 on all C and U
B10: IGEL11.1 (ssRNA)
RNA: GGGAGGACGAUGCGGAACAGCACGAGUGUACCUAAGACAGGCGAUGGCACUCGUGGUCGAAAUCAUAUAGUGAUGCAGACGACUCGCCCGA
modifications: 2'-NH2 on all C and U
B11: IGEL10.1 (ssRNA)
RNA: GGGAGGACGAUGCGGGCCACGCGUGGUUAGGGAUCGCGGACAGCACAAAUCGAAUUUGAUUCGCACCUGGACGGUCAGACGACUCGCCCGA
modifications: 2'-NH2 on all C and U
B12: IGEL44.1 (ssRNA)
RNA: GGGAGGACGAUGCGGGUGCGGGGCGAGUAUAUGAAACUUGGCUUGGUAAUGAUCAGAAGUAGUGAGAACUGGGUGCAGACGACUCGCCCGA
modifications: 2'-NH2 on all C and U
B13: IGEL5.1 (ssRNA)
RNA: GGGAGGACGAUGCGGGUAUCGGUACGUGUUGGCUUGGGAAGGGGUCCGACGGUGCAGACGACUCGCCCGA
modifications: 2'-NH2 on all C and U
B14: IGEL8.1 (ssRNA)
RNA: GGGAGGACGAUGCGGACCGCCCGUCGAGGGCUAGGCGUAGAGUCUAACCGGUGCCAGACGACUCGCCCGA
modifications: 2'-NH2 on all C and U
B15: IGEL49.1 (ssRNA)
RNA: GGGAGGACGAUGCGGGUGUGGGGCGGAUAAUGAGUGAACAGAGUGAAAUUCCAGUGUAGCCAGACUGUGCUGUCGCAGACGACUCGCCCGA
modifications: 2'-NH2 on all C and U

The data set concerns the target human IgE (Homo sapiens, UniProt P01854-1 P01854-1:1-428). Kind of data set: filter; modified PBS, 1 mM Mg2+, 37 C. To be noted: tags: Athens Research Technology; chain copies: 2; label: 32P.
For the molecule B1, binding was characterised by a dissociation constant (Kd) of 105 nM.

As to B2, the Kd (in general, the concentration at which binding is half-saturated) was 56 nM.

Take B3: the Kd amounted to 186 nM.

The molecule GGGAGGACGAUGCGGGUGUGGGGCG (ssRNA, 2'-NH2 on all C and U) [IGEL2.2] displayed a Kd of 44 nM.

In turn, B4 yielded a Kd of 141 nM.

Take B5: binding was put at a Kd of 41 nM.

Turning to B6, binding was characterised by a dissociation constant (Kd) of 50 nM.

For the molecule B7, the Kd is 134 nM.

Molecule B8 yielded a Kd of 30 nM.

Molecule B9 registered a Kd of 142 nM.

B10 had a Kd of 129 nM.

Molecule B11 gave a Kd of 69 nM.

Molecule B12 displayed an equilibrium dissociation constant (Kd) of 34 nM.

In turn, B13 registered a Kd of 145 nM. Against the preceding molecule, the Kd is about 4.3-fold higher.

B14 registered a Kd of 225 nM.

Molecule B15 gave a Kd of 39 nM.

Values taken from patent US5686592, “High-affinity oligonucleotide ligands to immunoglobulin E (IgE)” (NeXstar Pharmaceuticals, Inc.).
